From the supplement of paper PMC10567573

B1: ZER1 (parent)
chain: PILRLLPQGISPVSQHWATWALYN

Variants of: B1
Test: protein stability index of a GFP-peptide fusion (GPS, HEK-293T) (PSI 1-6); higher = more stable
Settings: c terminus: a fixed tail appended
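Note: lentivirally expressed fusions sorted by FACS into six bins by GFP to DsRed ratio, PSI derived from sequencing read proportions per bin multiplied by bin number.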

First: PILRLLPQSISPVSQHWATWALYN
Second: PILRLLPQHISPVSQHWATWALYN
The protein stability index of the first is lower: 2.01 for the first, 5.34 for the second.

Compared with PILRLLPQKISPVSQHWATWALYN, PILRLLPQIISPVSQHWATWALYN is lower in protein stability index: 3.57 for the first, 2.95 for the second.

Compared with PILRLLPQFISPVSQHWATWALYN, PILRLLPQTISPVSQHWATWALYN is higher in protein stability index: 2.78 for the first, 2.8 for the second.

Compared with PILRLLPQQISPVSQHWATWALYN, PILRLLPQNISPVSQHWATWALYN is higher in protein stability index: 1.97 for the first, 2.01 for the second.

Going from PILRLLPQGISPVSQHWGTWALYN to PILRLLPQGISPVSQHWHTWALYN, the protein stability index rises from 2.24 to 2.94.

Compared with PILRLLPQGISPVSQHWKTWALYN, PILRLLPQGISPVSQHWTTWALYN is higher in protein stability index: 2.89 for the first, 3.18 for the second.

First: PILRLLPQGISPVSQHWETWALYN
Second: PILRLLPQGISPVSQHWNTWALYN
The protein stability index of the first is lower: 2.82 for the first, 3.82 for the second.

Compared with PILRLLPQGISPVSQHWMTWALYN, PILRLLPQGISPVSQHWLTWALYN is lower in protein stability index: 2.28 for the first, 2.27 for the second.

Going from PILRLLPQGISPVSQHWRTWALYN to PILRLLPQGISPVSQHWYTWALYN, the protein stability index rises from 2.58 to 4.06.

Going from PILRLLPQGISPVSQHWITWALYN to PILRLLPQGISPVSQHWCTWALYN, the protein stability index falls from 1.83 to 1.74.

Going from PILRLLPQGISPVSQHWADWALYN to PILRLLPQGISPVSQHWAKWALYN, the protein stability index falls from 2.33 to 2.3.

Compared with PILRLLPQGISPVSQHWAAWALYN, PILRLLPQGISPVSQHWAPWALYN is lower in protein stability index: 2.69 for the first, 2.12 for the second.

Compared with PILRLLPQGISPVSQHWAGWALYN, PILRLLPQGISPCSQHWATWALYN is higher in protein stability index: 1.97 for the first, 2.48 for the second.

Compared with PILRLLPQGISPNSQHWATWALYN, PILRLLPQGISPASQHWATWALYN is higher in protein stability index: 1.8 for the first, 4.06 for the second.

First: PILRLLPQGISPSSQHWATWALYN
Second: PILRLLPQGISPFSQHWATWALYN
The protein stability index of the first is higher: 2.54 for the first, 1.88 for the second.

Compared with PILRLLPQGISPISQHWATWALYN, PILRLLPQGISPWSQHWATWALYN is lower in protein stability index: 1.68 for the first, 1.54 for the second.

Going from PILRLLPQGISPDSQHWATWALYN to PILRLLPQGISPTSQHWATWALYN, the protein stability index rises from 2.84 to 3.01.

Compared with PILRLLPQGISPGSQHWATWALYN, PILRLLPQGISPLSQHWATWALYN is higher in protein stability index: 1.87 for the first, 2.34 for the second.

Compared with PILRLLPQGNSPVSQHWATWALYN, PILRLLPQGESPVSQHWATWALYN is higher in protein stability index: 2.41 for the first, 3.31 for the second.

Going from PILRLLPQGHSPVSQHWATWALYN to PILRLLPQGMSPVSQHWATWALYN, the protein stability index rises from 2.79 to 3.55.

First: PILRLLPQGLSPVSQHWATWALYN
Second: PILRLLPQGDSPVSQHWATWALYN
The protein stability index of the first is higher: 2.61 for the first, 1.76 for the second.

First: PILRLLRQGISPVSQHWATWALYN
Second: PILRLLMQGISPVSQHWATWALYN
The protein stability index of the first is lower: 1.55 for the first, 3.56 for the second.

First: PILRLLDQGISPVSQHWATWALYN
Second: PILRLLTQGISPVSQHWATWALYN
The protein stability index of the first is lower: 2.52 for the first, 3.41 for the second.

Going from PILRLLAQGISPVSQHWATWALYN to PILRLLFQGISPVSQHWATWALYN, the protein stability index rises from 2.22 to 2.8.

Compared with PILRLLEQGISPVSQHWATWALYN, PILRLLVQGISPVSQHWATWALYN is lower in protein stability index: 3.19 for the first, 1.65 for the second.

First: PILRLLHQGISPVSQHWATWALYN
Second: PILRLLCQGISPVSQHWATWALYN
The protein stability index of the first is higher: 5.21 for the first, 2.12 for the second.

Compared with PILRLLWQGISPVSQHWATWALYN, PILRLYPQGISPVSQHWATWALYN is higher in protein stability index: 1.97 for the first, 2.65 for the second.

Going from PILRLLPQGISFVSQHWATWALYN to PILRLLPQGISIVSQHWATWALYN, the protein stability index falls from 3.32 to 3.2.

Going from PILRLLPQGISHVSQHWATWALYN to PILRLLPQGISVVSQHWATWALYN, the protein stability index falls from 3.2 to 2.1.

Going from PILRLLPQGISAVSQHWATWALYN to PILRLLPQGISNVSQHWATWALYN, the protein stability index falls from 2.33 to 1.85.

First: PILRLLPQGISYVSQHWATWALYN
Second: PILRLLPQGISQVSQHWATWALYN
The protein stability index of the first is higher: 3.44 for the first, 3.42 for the second.

First: PILRLLPQGISKVSQHWATWALYN
Second: PILRLLPRGISPVSQHWATWALYN
The protein stability index of the first is lower: 2.87 for the first, 3.32 for the second.

Compared with PILRLLPWGISPVSQHWATWALYN, PILRLLPKGISPVSQHWATWALYN is lower in protein stability index: 3.15 for the first, 2.29 for the second.

Going from PILRLLPYGISPVSQHWATWALYN to PILRLLPHGISPVSQHWATWALYN, the protein stability index falls from 2.12 to 1.5.

First: PILRLLPFGISPVSQHWATWALYN
Second: PILRLLPQGISPVSQHWATWALYI
The protein stability index of the first is lower: 2.58 for the first, 3.12 for the second.

Going from PILRLLPQGISPVSQHWATWALYM to PILRLLPQGISPVSQHWATWALYL, the protein stability index rises from 3.8 to 4.12.

First: PILRLLPQGISPVSQHWATWALYH
Second: PILRLLPQGISPVSQHWATWALYA
The protein stability index of the first is higher: 2.93 for the first, 2.09 for the second.

Going from PILRLLPQGISPVSQHWATWALYD to PILRLLPQGISPVSQHWATWALPN, the protein stability index falls from 3.49 to 1.54.

Compared with PILRLLPQGISPVSQHWATWALGN, PILRLLPQGISPVSQHWATWALHN is higher in protein stability index: 2.11 for the first, 3.01 for the second.

Going from PILRLLPQGISPVSQHWATWALKN to PILRLLPQGISPVSQHWATWALSN, the protein stability index falls from 1.92 to 1.66.

Going from PILRLLPQGISPVSQHWATWALRN to PILRLLPQGISPVSQHWATWALDN, the protein stability index rises from 1.17 to 2.

Compared with PILRLLPQGISPVSQHWATWALVN, PILRLLPQGISPVSQHWATWALWN is higher in protein stability index: 3.73 for the first, 4.62 for the second.

Going from PILRLLPQGISPVSQHWATWALNN to PILRLLPQGISPVSQHWATWALIN, the protein stability index rises from 2.92 to 3.22.

First: PILRLLPQGISPVSQHWATWALEN
Second: PILRLLPQGISPVSVHWATWALYN
The protein stability index of the first is lower: 1.8 for the first, 3.31 for the second.

Going from PILRLLPQGISPVSMHWATWALYN to PILRLLPQGISPVSTHWATWALYN, the protein stability index falls from 4.6 to 3.05.

Compared with PILRLLPQGISPVSNHWATWALYN, PILRLLPQGISPVSLHWATWALYN is lower in protein stability index: 2.99 for the first, 1.94 for the second.

Going from PILRLLPQGISPVSGHWATWALYN to PILRLLPQGISPVSFHWATWALYN, the protein stability index rises from 1 to 2.68.
